Measurements taken from the supplement of paper PMC9112550, “Optimization of the antimicrobial peptide Bac7 by deep mutational scanning” (BMC Biology, 2022).

test system: Escherichia coli TOP10; assay: shrunken log2 fold change of peptide-encoding DNA abundance (4.5 h post-induction vs induction); higher = less antimicrobial activity (less host growth inhibition); details: time post-induction: 4.5 h; library: site-saturation at positions 5, 18, 19, 20
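Also: peptides expressed intracellularly from a pBAD plasmid library in pooled LB shake-flask culture, induced with 0.3% L-arabinose, DNA abundance read by NGS, three biological replicates, DESeq2 with apeglm shrinkage.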

Sequence | shrunken log2 fold change
RRIRGRPPRLPRPRPRPWPNPRP | -0.0526
RRIRFRPPRLPRPRPRPVCDPRP | -0.255
RRIRVRPPRLPRPRPRPKLKPRP | 0.00388
RRIRTRPPRLPRPRPRPSECPRP | -0.166
RRIRNRPPRLPRPRPRPKVEPRP | 0.039
RRIRKRPPRLPRPRPRPEPIPRP | -0.0204
RRIRQRPPRLPRPRPRPIEAPRP | -0.00454
RRIRERPPRLPRPRPRPGFLPRP | -0.0604
RRIRGRPPRLPRPRPRPMMRPRP | 1.01
RRIRMRPPRLPRPRPRPTRGPRP | 1.57
RRIRIRPPRLPRPRPRPADIPRP | 0.00782
RRIRDRPPRLPRPRPRPSVFPRP | 0.423
RRIRARPPRLPRPRPRPAIYPRP | -0.0399
RRIRDRPPRLPRPRPRPINNPRP | -1.21
RRIRCRPPRLPRPRPRPPYIPRP | -0.305
RRIRTRPPRLPRPRPRPFDDPRP | 0.0564
RRIRGRPPRLPRPRPRPAKQPRP | 0.199
RRIRIRPPRLPRPRPRPAFVPRP | -0.0212
RRIRNRPPRLPRPRPRPHRWPRP | 0.0666
RRIRQRPPRLPRPRPRPFTIPRP | 0.0944
RRIRKRPPRLPRPRPRPVRPPRP | 1.28
RRIRHRPPRLPRPRPRPGKPPRP | -0.00366
RRIRHRPPRLPRPRPRPMQRPRP | 0.138
RRIRYRPPRLPRPRPRPLDTPRP | -0.429
RRIRGRPPRLPRPRPRPQPQPRP | 0.706

Sequence | shrunken log2 fold change
RRIRWRPPRLPRPRPRPSHCPRP | -0.689
RRIRYRPPRLPRPRPRPATLPRP | -0.307
RRIRSRPPRLPRPRPRPSVVPRP | -0.219
RRIRDRPPRLPRPRPRPKPPPRP | 0.471
RRIRSRPPRLPRPRPRPEGKPRP | 0.0822
RRIRFRPPRLPRPRPRPSMMPRP | -0.941
RRIRCRPPRLPRPRPRPDILPRP | -0.0877
RRIRLRPPRLPRPRPRPLEIPRP | -0.0425
RRIRPRPPRLPRPRPRPENCPRP | 0.151
RRIRSRPPRLPRPRPRPRMCPRP | -0.155
RRIRCRPPRLPRPRPRPSCLPRP | -0.499
RRIRGRPPRLPRPRPRPWSNPRP | -0.116
RRIRGRPPRLPRPRPRPMPCPRP | 0.104
RRIRTRPPRLPRPRPRPRSWPRP | 0.532
RRIRGRPPRLPRPRPRPEWGPRP | 0.544
RRIRTRPPRLPRPRPRPWWIPRP | -0.869
RRIRGRPPRLPRPRPRPVRTPRP | 1.3
RRIRPRPPRLPRPRPRPCCWPRP | 0.81
RRIRRRPPRLPRPRPRPWDPPRP | -0.119
RRIRHRPPRLPRPRPRPQGGPRP | -0.0982
RRIRLRPPRLPRPRPRPTGWPRP | 0.303
RRIRPRPPRLPRPRPRPEWDPRP | 0.269
RRIRSRPPRLPRPRPRPWHSPRP | -0.0018
RRIRYRPPRLPRPRPRPMFSPRP | -1.07
RRIRMRPPRLPRPRPRPTGNPRP | 0.496

Sequence | shrunken log2 fold change
RRIRRRPPRLPRPRPRPCWGPRP | 0.0286
RRIRKRPPRLPRPRPRPWMLPRP | -0.266
RRIRERPPRLPRPRPRPREEPRP | -0.00173
RRIRCRPPRLPRPRPRPIFSPRP | -0.0342
RRIRPRPPRLPRPRPRPNFVPRP | -0.0668
RRIRPRPPRLPRPRPRPNHHPRP | -0.509
RRIRVRPPRLPRPRPRPENQPRP | -0.008
RRIRPRPPRLPRPRPRPNTNPRP | -0.329
RRIRHRPPRLPRPRPRPDVIPRP | 0.0849
RRIRCRPPRLPRPRPRPYIFPRP | -0.773
RRIRARPPRLPRPRPRPVCWPRP | 0.894
RRIRCRPPRLPRPRPRPDYPPRP | -0.221
RRIRCRPPRLPRPRPRPWTDPRP | -0.055
RRIRVRPPRLPRPRPRPAYAPRP | -0.129
RRIRWRPPRLPRPRPRPPCQPRP | 0.0989
RRIRNRPPRLPRPRPRPYYAPRP | -0.0919
RRIRVRPPRLPRPRPRPNVQPRP | -0.0734
RRIRKRPPRLPRPRPRPHMKPRP | -0.0471
RRIRYRPPRLPRPRPRPCIEPRP | -0.0017
RRIRIRPPRLPRPRPRPDFAPRP | 0.222
RRIRPRPPRLPRPRPRPTYSPRP | -0.104
RRIRPRPPRLPRPRPRPSPVPRP | 0.0207
RRIRPRPPRLPRPRPRPGKEPRP | 0.0995
RRIRLRPPRLPRPRPRPYKGPRP | -0.027
RRIRHRPPRLPRPRPRPLPAPRP | 0.192

Sequence | shrunken log2 fold change
RRIRHRPPRLPRPRPRPVPAPRP | -0.0665
RRIRPRPPRLPRPRPRPNDSPRP | -0.442
RRIRFRPPRLPRPRPRPWGLPRP | -0.168
RRIRTRPPRLPRPRPRPMYHPRP | -0.0615
RRIRNRPPRLPRPRPRPIDSPRP | -0.0173
RRIRCRPPRLPRPRPRPNASPRP | 0.0178
RRIRHRPPRLPRPRPRPRVWPRP | 0.534
RRIRPRPPRLPRPRPRPNDNPRP | -0.533
RRIRYRPPRLPRPRPRPASHPRP | -1
RRIRRRPPRLPRPRPRPYFGPRP | -0.163
RRIRPRPPRLPRPRPRPNTYPRP | -0.67
RRIRQRPPRLPRPRPRPGWYPRP | 0.126
RRIRERPPRLPRPRPRPWMKPRP | -0.353
RRIRGRPPRLPRPRPRPANEPRP | -0.0603
RRIRVRPPRLPRPRPRPGVQPRP | -0.0209
RRIRTRPPRLPRPRPRPHQQPRP | -0.0314
RRIRLRPPRLPRPRPRPSMPPRP | -0.4
RRIRARPPRLPRPRPRPDNVPRP | -0.059
RRIRPRPPRLPRPRPRPMVFPRP | -0.166
RRIRLRPPRLPRPRPRPACPPRP | -0.00982
RRIRKRPPRLPRPRPRPDYDPRP | 0.143
RRIRGRPPRLPRPRPRPSRSPRP | 0.253
RRIRTRPPRLPRPRPRPGDRPRP | 0.0976
RRIRIRPPRLPRPRPRPLWYPRP | -0.551
RRIRIRPPRLPRPRPRPILCPRP | -0.0872

Sequence | shrunken log2 fold change
RRIRYRPPRLPRPRPRPTKRPRP | -0.028
RRIRRRPPRLPRPRPRPTCLPRP | 0.099
RRIRTRPPRLPRPRPRPDMQPRP | 1.96
RRIRMRPPRLPRPRPRPMRDPRP | 1.3
RRIRGRPPRLPRPRPRPKNNPRP | 0.198
RRIRTRPPRLPRPRPRPWMMPRP | 0.0505
RRIRKRPPRLPRPRPRPTTIPRP | 0.259
RRIRARPPRLPRPRPRPCGQPRP | 0.25
RRIRMRPPRLPRPRPRPKHKPRP | 0.562
RRIRGRPPRLPRPRPRPAKDPRP | 1.84
RRIRWRPPRLPRPRPRPFYEPRP | -0.579
RRIRSRPPRLPRPRPRPHAMPRP | -0.376
RRIRLRPPRLPRPRPRPYCHPRP | -0.542
RRIRKRPPRLPRPRPRPNHNPRP | -0.382
RRIRRRPPRLPRPRPRPCYYPRP | 0.0129
RRIRHRPPRLPRPRPRPKHCPRP | -0.447
RRIRYRPPRLPRPRPRPVCDPRP | -0.623
RRIRMRPPRLPRPRPRPIRRPRP | -0.168
RRIRVRPPRLPRPRPRPCPYPRP | -1.14
RRIRHRPPRLPRPRPRPRMFPRP | -0.219
RRIRERPPRLPRPRPRPNDNPRP | -0.882
RRIRDRPPRLPRPRPRPWWNPRP | -0.0921
RRIRYRPPRLPRPRPRPEIHPRP | -0.224
RRIRRRPPRLPRPRPRPGMHPRP | 0.217
RRIRVRPPRLPRPRPRPRDMPRP | -0.0624

Sequence | shrunken log2 fold change
RRIRLRPPRLPRPRPRPHVQPRP | -0.528
RRIRERPPRLPRPRPRPCIDPRP | -0.00146
RRIRGRPPRLPRPRPRPNCCPRP | 0.245
RRIRRRPPRLPRPRPRPLICPRP | 0.119
RRIRKRPPRLPRPRPRPPKKPRP | 0.0439
RRIRMRPPRLPRPRPRPKCDPRP | 0.318
RRIRYRPPRLPRPRPRPTGMPRP | 0.0495
RRIRERPPRLPRPRPRPDEIPRP | -0.111
RRIRKRPPRLPRPRPRPASAPRP | 0.59
RRIRDRPPRLPRPRPRPMVMPRP | 0.133
RRIRARPPRLPRPRPRPTKKPRP | 0.0778
RRIRRRPPRLPRPRPRPTYMPRP | -0.242
RRIRLRPPRLPRPRPRPIHAPRP | 0.111
RRIRTRPPRLPRPRPRPEMMPRP | -0.0411
RRIRGRPPRLPRPRPRPHPMPRP | 0.497
RRIRVRPPRLPRPRPRPGMFPRP | -0.132
RRIRHRPPRLPRPRPRPQFEPRP | -0.0276
RRIRERPPRLPRPRPRPESDPRP | -0.0699
RRIRLRPPRLPRPRPRPCPRPRP | 0.0559
RRIRLRPPRLPRPRPRPPIDPRP | 0.13
RRIRPRPPRLPRPRPRPVIGPRP | 0.0389
RRIRMRPPRLPRPRPRPFMMPRP | -0.113
RRIRRRPPRLPRPRPRPGPDPRP | 0.518
RRIRTRPPRLPRPRPRPFTNPRP | -0.0559
RRIRHRPPRLPRPRPRPDLNPRP | 0.015
